A short description of this series: In vitro release rate from implantable osmotic delivery device (RP-HPLC). Type of series: physicochemical. The following applies: 37° C., out to 100 days.

Among the data in patent publication US20170119854A1, “HIGHLY CONCENTRATED DRUG PARTICLES, FORMULATIONS, SUSPENSIONS AND USES THEREOF” (Intarcia Therapeutics, Inc., priority 2008, published 2017) are approximate release rate values, retold here.

Description: For each study, a drug reservoir of an implantable osmotic delivery device was filled with 160 μl of one of the suspension formulations described in Example 2. The membrane ends of the osmotic pumps were placed into stoppered glass vials filled with 3 ml phosphate buffer solution (PBS), and the diffusion moderator ends of the osmotic pumps were placed into glass vials filled with 2.5 to 3 ml release rate medium (citrate buffer solution at pH 6.0 with 0.14 M NaCl and 0.2% sodium azide).
Each system was placed into a capped test tube, with the diffusion moderator side down, and partially immersed in a 37° C. water bath. At specified time points, the glass vials at the diffusion moderator ends were replaced with new glass vials filled with 2.5 to 3 ml release rate medium (citrate buffer solution at pH 6.0 with 0.14 M NaCl and 0.2% sodium azide). Samples were collected from the diffusion moderator ends of the osmotic pumps and analyzed using RP-HPLC.

Turning to omega interferon, the approximate release rate was ~50 µg/day.
